Results on two substances are retold here after publication PMC10613257.

One may read the pKd as the Kd on a negative log10 scale, so that one unit is a factor of ten.

For assay [1], the target named is insulin-like growth factor binding protein 5 (IGFBP5), full length, wild type (UniProt P24593). As to the kind of experiment: FP. To be noted: enzyme.
For assay [2] the target is unchanged. Briefly: fluorescence polarisation; FAM-labelled FL IGFBP5 at 5 nM; enzyme serially diluted from 10 µM to 0.5 nM; 1X PBS; 384-well plates; catalytically inactive enzymes. A general note: In fluorescence polarisation assays a small probe gives low polarisation when free and higher when bound to something large.

pKd: −log10 of the molar value.

Chain of insulin-like growth factor binding protein 5 (IGFBP5), full length, wild type (P24593 21-272): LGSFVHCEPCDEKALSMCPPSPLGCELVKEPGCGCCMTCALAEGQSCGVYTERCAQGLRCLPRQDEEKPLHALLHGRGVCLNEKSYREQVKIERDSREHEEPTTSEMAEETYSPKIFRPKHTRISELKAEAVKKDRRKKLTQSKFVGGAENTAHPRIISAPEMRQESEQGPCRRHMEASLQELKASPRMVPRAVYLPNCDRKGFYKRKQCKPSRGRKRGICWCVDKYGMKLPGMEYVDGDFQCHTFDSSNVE

The substance “PAPP-A2 E500Q (catalytically inactive) (from UniProt Q9BXP8 235-1791)” gave a pKd in assay [1] of 5.58.

The substance “PAPP-A2 E500Q (catalytically inactive) (from UniProt Q9BXP8 235-1791) (enzyme)” displayed a fold weaker binding than PAPP-A E483A in assay [2] of 11 fold.
